The supplement of paper PMC9112550, “Optimization of the antimicrobial peptide Bac7 by deep mutational scanning” (BMC Biology, 2022)

tested on: Escherichia coli TOP10; test: shrunken log2 fold change of peptide-encoding DNA abundance (4.5 h post-induction vs induction); higher = less antimicrobial activity (less host growth inhibition); settings: time post-induction: 4.5 h; library: site-saturation at positions 5, 18, 19, 20
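Further: peptides expressed intracellularly from a pBAD plasmid library in pooled LB shake-flask culture, induced with 0.3% L-arabinose, DNA abundance read by NGS, three biological replicates, DESeq2 with apeglm shrinkage.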

Sequence | shrunken log2 fold change
RRIRHRPPRLPRPRPRPPILPRP | -0.0767
RRIRQRPPRLPRPRPRPHLSPRP | -0.00594
RRIRNRPPRLPRPRPRPQWFPRP | -0.0391
RRIRGRPPRLPRPRPRPPHQPRP | 0.806
RRIRWRPPRLPRPRPRPYEKPRP | -0.139
RRIRIRPPRLPRPRPRPGPLPRP | -0.00626
RRIRKRPPRLPRPRPRPYWVPRP | -0.306
RRIRWRPPRLPRPRPRPTARPRP | 0.0278
RRIRYRPPRLPRPRPRPRREPRP | 0.0181
RRIRERPPRLPRPRPRPFNMPRP | -0.236
RRIRRRPPRLPRPRPRPISVPRP | -0.115
RRIRMRPPRLPRPRPRPVSMPRP | 0.382
RRIRGRPPRLPRPRPRPSPDPRP | 0.69
RRIRVRPPRLPRPRPRPMPRPRP | 0.24
RRIRRRPPRLPRPRPRPHTHPRP | -0.11
RRIRWRPPRLPRPRPRPVNPPRP | 0.0699
RRIRVRPPRLPRPRPRPPDDPRP | 0.107
RRIRVRPPRLPRPRPRPAQAPRP | 0.74
RRIRERPPRLPRPRPRPGDTPRP | -0.943
RRIRPRPPRLPRPRPRPLITPRP | -0.357
RRIRRRPPRLPRPRPRPKVNPRP | 0.468
RRIRSRPPRLPRPRPRPWIWPRP | 0.341
RRIRCRPPRLPRPRPRPAWNPRP | 0.035
RRIRLRPPRLPRPRPRPAMIPRP | -0.223
RRIRDRPPRLPRPRPRPYMPPRP | -0.517

Sequence | shrunken log2 fold change
RRIRCRPPRLPRPRPRPSNFPRP | -0.627
RRIRMRPPRLPRPRPRPELQPRP | -0.00152
RRIRCRPPRLPRPRPRPSPTPRP | 0.022
RRIRSRPPRLPRPRPRPPMMPRP | 0.0697
RRIRQRPPRLPRPRPRPGSSPRP | -0.172
RRIRIRPPRLPRPRPRPGMQPRP | -0.282
RRIRQRPPRLPRPRPRPWFPPRP | -0.156
RRIRVRPPRLPRPRPRPNGDPRP | -0.187
RRIRVRPPRLPRPRPRPEFPPRP | -0.081
RRIRRRPPRLPRPRPRPNYPPRP | 0.0594
RRIRMRPPRLPRPRPRPISEPRP | 0.151
RRIRRRPPRLPRPRPRPLLAPRP | 0.887
RRIRSRPPRLPRPRPRPSRMPRP | -0.205
RRIRQRPPRLPRPRPRPECLPRP | -0.21
RRIRKRPPRLPRPRPRPCTEPRP | 0.0485
RRIRKRPPRLPRPRPRPYGDPRP | -0.224
RRIRFRPPRLPRPRPRPRLRPRP | 0.378
RRIRPRPPRLPRPRPRPCVYPRP | -0.22
RRIRWRPPRLPRPRPRPRAPPRP | 0.84
RRIRFRPPRLPRPRPRPVGMPRP | 0.348
RRIRYRPPRLPRPRPRPIVHPRP | -2.04
RRIRHRPPRLPRPRPRPIFIPRP | -0.372
RRIRQRPPRLPRPRPRPLTTPRP | 0.106
RRIRRRPPRLPRPRPRPKYAPRP | -0.0331
RRIRHRPPRLPRPRPRPCLVPRP | 0.214

Sequence | shrunken log2 fold change
RRIRERPPRLPRPRPRPGGCPRP | 1.44
RRIRGRPPRLPRPRPRPKRPPRP | 0.969
RRIRRRPPRLPRPRPRPPVDPRP | 0.241
RRIRIRPPRLPRPRPRPRNGPRP | 0.103
RRIRNRPPRLPRPRPRPKGAPRP | 0.476
RRIRVRPPRLPRPRPRPCGSPRP | -0.225
RRIRRRPPRLPRPRPRPEEDPRP | -0.0235
RRIRNRPPRLPRPRPRPCPKPRP | 0.0342
RRIRKRPPRLPRPRPRPHSYPRP | 0.0421
RRIRNRPPRLPRPRPRPDAFPRP | -0.0836
RRIRSRPPRLPRPRPRPPCTPRP | -0.174
RRIRNRPPRLPRPRPRPRLPPRP | 0.245
RRIRPRPPRLPRPRPRPGECPRP | 0.739
RRIRNRPPRLPRPRPRPMFFPRP | -0.189
RRIRVRPPRLPRPRPRPHAPPRP | 0.26
RRIRMRPPRLPRPRPRPAVTPRP | 0.177
RRIRFRPPRLPRPRPRPAADPRP | 0.0709
RRIRPRPPRLPRPRPRPFRVPRP | 0.0659
RRIRCRPPRLPRPRPRPPYPPRP | -0.193
RRIRHRPPRLPRPRPRPMIWPRP | -0.00298
RRIRIRPPRLPRPRPRPRYWPRP | 0.0433
RRIRCRPPRLPRPRPRPRGMPRP | 1.56
RRIRNRPPRLPRPRPRPSRNPRP | 0.0074
RRIRYRPPRLPRPRPRPTTLPRP | -0.0157
RRIRNRPPRLPRPRPRPTTMPRP | -0.0975

Sequence | shrunken log2 fold change
RRIRCRPPRLPRPRPRPWYWPRP | -0.286
RRIRNRPPRLPRPRPRPFENPRP | -0.0135
RRIRERPPRLPRPRPRPTCFPRP | -0.133
RRIRVRPPRLPRPRPRPTRWPRP | 0.173
RRIRCRPPRLPRPRPRPANVPRP | -0.0934
RRIRMRPPRLPRPRPRPTMLPRP | 0.0475
RRIRVRPPRLPRPRPRPVETPRP | 0.0754
RRIRKRPPRLPRPRPRPWIFPRP | 0.287
RRIRPRPPRLPRPRPRPGLQPRP | -0.0954
RRIRMRPPRLPRPRPRPTFCPRP | 0.282
RRIRMRPPRLPRPRPRPRTTPRP | 0.714
RRIRGRPPRLPRPRPRPYREPRP | 0.00752
RRIRGRPPRLPRPRPRPDFYPRP | 0.232
RRIRRRPPRLPRPRPRPVDKPRP | 0.0213
RRIRIRPPRLPRPRPRPQMKPRP | -0.747
RRIRKRPPRLPRPRPRPQDWPRP | 0.413
RRIRFRPPRLPRPRPRPKMHPRP | 0.0482
RRIRLRPPRLPRPRPRPSAVPRP | -0.16
RRIRARPPRLPRPRPRPQGEPRP | 0.294
RRIRMRPPRLPRPRPRPGPYPRP | -0.149
RRIRSRPPRLPRPRPRPWTGPRP | -0.105
RRIRYRPPRLPRPRPRPGCSPRP | -0.214
RRIRHRPPRLPRPRPRPFAFPRP | -0.121
RRIRRRPPRLPRPRPRPVVFPRP | 0.286
RRIRFRPPRLPRPRPRPLYRPRP | -0.702

Sequence | shrunken log2 fold change
RRIRVRPPRLPRPRPRPQNMPRP | -0.465
RRIRIRPPRLPRPRPRPWVTPRP | -0.0476
RRIRDRPPRLPRPRPRPHHFPRP | -0.49
RRIRWRPPRLPRPRPRPPWAPRP | 0.452
RRIRRRPPRLPRPRPRPRNEPRP | 0.18
RRIRHRPPRLPRPRPRPTQKPRP | -0.00748
RRIRNRPPRLPRPRPRPLKGPRP | -0.0139
RRIRIRPPRLPRPRPRPYKSPRP | -1.14
RRIRYRPPRLPRPRPRPSYTPRP | -1.38
RRIRIRPPRLPRPRPRPAHRPRP | -0.133
RRIRCRPPRLPRPRPRPAHGPRP | 0.23
RRIRGRPPRLPRPRPRPPRNPRP | 1.1
RRIRRRPPRLPRPRPRPCGPPRP | 0.517
RRIRSRPPRLPRPRPRPDVPPRP | -0.0936
RRIRHRPPRLPRPRPRPTTLPRP | -0.301
RRIRVRPPRLPRPRPRPVAIPRP | -0.396
RRIRIRPPRLPRPRPRPKVVPRP | -0.00466
RRIRCRPPRLPRPRPRPSLPPRP | -0.0253
RRIRIRPPRLPRPRPRPRRDPRP | -0.108
RRIRARPPRLPRPRPRPELFPRP | 0.7
RRIRRRPPRLPRPRPRPAQIPRP | 0.494
RRIRVRPPRLPRPRPRPVCNPRP | -0.0396
RRIRVRPPRLPRPRPRPWAHPRP | -0.0201
RRIRVRPPRLPRPRPRPTTHPRP | -0.0858
RRIRWRPPRLPRPRPRPMSEPRP | 0.0832

Sequence | shrunken log2 fold change
RRIRIRPPRLPRPRPRPHWMPRP | -1.57
RRIRQRPPRLPRPRPRPQIYPRP | 0.0392
RRIRFRPPRLPRPRPRPYPIPRP | -0.281
RRIRCRPPRLPRPRPRPCIDPRP | -0.385
RRIRYRPPRLPRPRPRPVFIPRP | -0.929
RRIRIRPPRLPRPRPRPMHLPRP | -0.22
RRIRARPPRLPRPRPRPTIPPRP | 0.132
RRIRIRPPRLPRPRPRPKCDPRP | -0.352
RRIRSRPPRLPRPRPRPFELPRP | 0.0413
RRIRRRPPRLPRPRPRPWCPPRP | -0.0442
RRIRWRPPRLPRPRPRPGFMPRP | 0.212
RRIRIRPPRLPRPRPRPANQPRP | -0.693
RRIRVRPPRLPRPRPRPCVFPRP | -0.00495
RRIRHRPPRLPRPRPRPMWFPRP | -0.218
RRIRYRPPRLPRPRPRPNQFPRP | -0.533
RRIRLRPPRLPRPRPRPSVIPRP | -0.183
RRIRARPPRLPRPRPRPQQWPRP | 0.2
RRIRWRPPRLPRPRPRPQMMPRP | -0.0594
RRIRRRPPRLPRPRPRPLAEPRP | 0.654
RRIRFRPPRLPRPRPRPDKLPRP | -0.505
RRIRGRPPRLPRPRPRPDVSPRP | 0.163
RRIRRRPPRLPRPRPRPAFCPRP | 0.404
RRIRKRPPRLPRPRPRPFSIPRP | -0.0639
RRIRDRPPRLPRPRPRPPIGPRP | 0.849
RRIRNRPPRLPRPRPRPNGYPRP | -0.0975
